In patent publication US12338277:

Experiments:
Assay in all cases: cell-based or functional assay
[1] = target: HIV-1 Env of pseudovirus Ce1172_H1 (HIV-1)
[2] = target: HIV-1 Env of pseudovirus T257-31 (HIV-1)
[3] = target: HIV-1 envelope of pseudovirus 3016.v5.c45 (HIV-1)
[4] = target: HIV-1 Env of pseudovirus CNE5 (HIV-1)
[5] = target: HIV-1 Env of pseudovirus A07412M1.vrc12 (HIV-1)
[6] = target: HIV-1 Env of pseudovirus R1166.c01 (HIV-1)
[7] = target: HIV-1 envelope of pseudovirus X1193_c1 (HIV-1)
[8] = target: HIV-1 envelope spike of pseudovirus SS1196.1 (HIV-1)
[9] = target: HIV-1 Env of pseudovirus 3365.v2.c2 (HIV-1)
[10] = target: HIV-1 Env of pseudovirus 0815.v3.c3 (HIV-1)
[11] = target: HIV-1 envelope of pseudovirus BF1266.431a (HIV-1)
[12] = target: HIV-1 Env of pseudovirus 3103.v3.c10 (HIV-1)
[13] = target: HIV-1 envelope of pseudovirus 6952.v1.c20 (HIV-1)
[14] = target: HIV-1 envelope of pseudovirus 6041.v3.c23 (HIV-1)
[15] = target: HIV-1 Env of pseudovirus 928-28 (HIV-1)
[16] = target: HIV-1 Env of pseudovirus BJOX025000.01.1 (HIV-1)
[17] = target: HIV-1 Env of pseudovirus WITO4160.33 (HIV-1)
[18] = target: HIV-1 Env of pseudovirus CAAN5342.A2 (HIV-1)
[19] = target: HIV-1 Env of pseudovirus Q23.17 (HIV-1)
[20] = target: HIV-1 envelope of pseudovirus C4118.c09 (HIV-1)
[21] = target: HIV-1 Env of pseudovirus 6540.v4.c1 (HIV-1)
[22] = target: HIV-1 envelope of pseudovirus 0260.v5.c36 (HIV-1)
[23] = target: HIV-1 envelope of pseudovirus CNE21 (HIV-1)
[24] = target: HIV-1 Env of pseudovirus ZM109F.PB4 (HIV-1)
[25] = target: HIV-1 Env of pseudovirus 6041.v3.c23 (HIV-1)
[26] = target: HIV-1 Env of pseudovirus 6240_08_TA5_4622 (HIV-1)
[27] = target: HIV-1 envelope of pseudovirus Ce703010054_2A2 (HIV-1)
[28] = target: HIV-1 envelope of pseudovirus HIV-0013095-2.11 (HIV-1)
[29] = target: HIV-1 envelope of pseudovirus 3817.v2.c59 (HIV-1)
[30] = target: HIV-1 Env of pseudovirus Ce0682_E4 (HIV-1)
[31] = target: HIV-1 envelope of pseudovirus 9004SS_A3_4 (HIV-1)
[32] = target: HIV-1 envelope of pseudovirus 6811.v7.c18 (HIV-1)
[33] = target: HIV-1 Env of pseudovirus CNE21 (HIV-1)
[34] = target: HIV-1 envelope of pseudovirus 231965.c01 (HIV-1)
[35] = target: HIV-1 envelope of pseudovirus A07412M1.vrc12 (HIV-1)
[36] = target: HIV-1 Env of pseudovirus Q259.d2.17 (HIV-1)
[37] = target: HIV-1 envelope of pseudovirus T257-31 (HIV-1)
[38] = target: HIV-1 envelope of pseudovirus ZM249M.PL1 (HIV-1)
[39] = target: HIV-1 envelope of pseudovirus RHPA4259.7 (HIV-1)
[40] = target: HIV-1 Env of pseudovirus 6480.v4.c25 (HIV-1)
[41] = target: HIV-1 envelope spike of pseudovirus 6535.3 (HIV-1)
[42] = target: HIV-1 Env of pseudovirus 3817.v2.c59 (HIV-1)
[43] = target: HIV-1 Env of pseudovirus 6952.v1.c20 (HIV-1)
[44] = target: HIV-1 Env of pseudovirus PVO.4 (HIV-1)
[45] = target: HIV-1 Env of pseudovirus Du172.17 (HIV-1)
[46] = target: HIV-1 envelope of pseudovirus 1054_07_TC4_1499 (HIV-1)
[47] = target: HIV-1 envelope of pseudovirus 7030102001E5(Rev-) (HIV-1)
[48] = target: HIV-1 Env of pseudovirus CAP45.2.00.G3 (HIV-1)
[49] = target: HIV-1 envelope of pseudovirus X1632_S2_B10 (HIV-1)
[50] = target: HIV-1 envelope of pseudovirus 211-9 (HIV-1)

10-996 (antibody), sequence (VH): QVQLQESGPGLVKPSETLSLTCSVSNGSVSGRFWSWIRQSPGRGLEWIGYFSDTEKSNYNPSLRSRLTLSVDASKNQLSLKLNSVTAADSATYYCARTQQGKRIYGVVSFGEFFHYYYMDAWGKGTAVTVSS
10-996 (antibody), sequence (VL): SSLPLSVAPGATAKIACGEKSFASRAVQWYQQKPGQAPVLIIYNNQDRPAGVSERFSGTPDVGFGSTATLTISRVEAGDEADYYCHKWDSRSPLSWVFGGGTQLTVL

## PGT121 (antibody)
[1]
  IC80 (TZM-bl neutralization): 0.088 µg/mL
[2]
  IC80 (TZM-bl neutralization): > 50 µg/mL
[3]
  IC50 (TZM-bl neutralization): > 50 µg/mL
[4]
  IC80 (TZM-bl neutralization): > 50 µg/mL
[5]
  IC80 (TZM-bl neutralization): 0.406 µg/mL
[6]
  IC80 (TZM-bl neutralization): > 50 µg/mL
[7]
  IC50 (TZM-bl neutralization): 0.045 µg/mL
[8]
  IC50 (TZM-bl neutralization assay): 0.008 µg/mL
  IC80 (TZM-bl neutralization assay): 0.03 µg/mL
[9]
  IC80 (TZM-bl neutralization): 7.35 µg/mL
[10]
  IC80 (TZM-bl neutralization): 0.105 µg/mL
[11]
  IC50 (TZM-bl neutralization): > 50 µg/mL
[12]
  IC80 (TZM-bl neutralization): 0.11 µg/mL
[13]
  IC50 (TZM-bl neutralization): 0.085 µg/mL
[14]
  IC50 (TZM-bl neutralization): > 50 µg/mL
[15]
  IC80 (TZM-bl neutralization): > 50 µg/mL
[16]
  IC80 (TZM-bl neutralization): > 50 µg/mL
[17]
  IC80 (TZM-bl neutralization): 6.01 µg/mL
[18]
  IC80 (TZM-bl neutralization): 0.051 µg/mL
[19]
  IC80 (TZM-bl neutralization): 0.031 µg/mL
[20]
  IC50 (TZM-bl neutralization): > 50 µg/mL
[21]
  IC80 (TZM-bl neutralization): > 50 µg/mL
[22]
  IC50 (TZM-bl neutralization): 0.054 µg/mL
[23]
  IC50 (TZM-bl neutralization): 0.02 µg/mL
[24]
  IC80 (TZM-bl neutralization): > 50 µg/mL
[25]
  IC80 (TZM-bl neutralization): > 50 µg/mL
[26]
  IC80 (TZM-bl neutralization): 0.584 µg/mL
[27]
  IC50 (TZM-bl neutralization): > 50 µg/mL
[28]
  IC50 (TZM-bl neutralization): > 50 µg/mL
[29]
  IC50 (TZM-bl neutralization): > 50 µg/mL
[30]
  IC80 (TZM-bl neutralization): > 50 µg/mL
[31]
  IC50 (TZM-bl neutralization): 0.008 µg/mL
[32]
  IC50 (TZM-bl neutralization): 0.004 µg/mL
[33]
  IC80 (TZM-bl neutralization): 0.061 µg/mL
[34]
  IC50 (TZM-bl neutralization): > 50 µg/mL
[35]
  IC50 (TZM-bl neutralization): 0.001 µg/mL
[36]
  IC80 (TZM-bl neutralization): > 50 µg/mL
[37]
  IC50 (TZM-bl neutralization): > 50 µg/mL
[38]
  IC50 (TZM-bl neutralization): > 50 µg/mL
[39]
  IC50 (TZM-bl neutralization): 0.014 µg/mL
[40]
  IC80 (TZM-bl neutralization): 0.079 µg/mL
[41]
  IC50 (TZM-bl neutralization assay): 0.007 µg/mL
  IC80 (TZM-bl neutralization assay): 0.041 µg/mL
[42]
  IC80 (TZM-bl neutralization): > 50 µg/mL
[43]
  IC80 (TZM-bl neutralization): 0.605 µg/mL
[44]
  IC80 (TZM-bl neutralization): 0.945 µg/mL
[45]
  IC80 (TZM-bl neutralization): 0.89 µg/mL
[46]
  IC50 (TZM-bl neutralization): 0.115 µg/mL
[47]
  IC50 (TZM-bl neutralization): 0.01 µg/mL
[48]
  IC80 (TZM-bl neutralization): 6.54 µg/mL
[49]
  IC50 (TZM-bl neutralization): > 50 µg/mL
[50]
  IC50 (TZM-bl neutralization): 1.46 µg/mL

## 10-996 (antibody)
[1]
  IC80 (TZM-bl neutralization): 0.173 µg/mL
[2]
  IC80 (TZM-bl neutralization): > 50 µg/mL
[3]
  IC50 (TZM-bl neutralization): > 50 µg/mL
[4]
  IC80 (TZM-bl neutralization): > 50 µg/mL
[5]
  IC80 (TZM-bl neutralization): 0.07 µg/mL
[6]
  IC80 (TZM-bl neutralization): > 50 µg/mL
[7]
  IC50 (TZM-bl neutralization): 0.144 µg/mL
[8]
  IC50 (TZM-bl neutralization assay): 0.007 µg/mL
  IC80 (TZM-bl neutralization assay): 0.04 µg/mL
[9]
  IC80 (TZM-bl neutralization): 1.38 µg/mL
[10]
  IC80 (TZM-bl neutralization): 0.251 µg/mL
[11]
  IC50 (TZM-bl neutralization): > 50 µg/mL
[12]
  IC80 (TZM-bl neutralization): 0.15 µg/mL
[13]
  IC50 (TZM-bl neutralization): 0.044 µg/mL
[14]
  IC50 (TZM-bl neutralization): > 50 µg/mL
[15]
  IC80 (TZM-bl neutralization): 7.15 µg/mL
[16]
  IC80 (TZM-bl neutralization): > 50 µg/mL
[17]
  IC80 (TZM-bl neutralization): 6.48 µg/mL
[18]
  IC80 (TZM-bl neutralization): 0.079 µg/mL
[19]
  IC80 (TZM-bl neutralization): 0.03 µg/mL
[20]
  IC50 (TZM-bl neutralization): > 50 µg/mL
[21]
  IC80 (TZM-bl neutralization): > 50 µg/mL
[22]
  IC50 (TZM-bl neutralization): 0.16 µg/mL
[23]
  IC50 (TZM-bl neutralization): 0.086 µg/mL
[24]
  IC80 (TZM-bl neutralization): > 50 µg/mL
[25]
  IC80 (TZM-bl neutralization): > 50 µg/mL
[26]
  IC80 (TZM-bl neutralization): 0.348 µg/mL
[27]
  IC50 (TZM-bl neutralization): > 50 µg/mL
[28]
  IC50 (TZM-bl neutralization): 31.5 µg/mL
[29]
  IC50 (TZM-bl neutralization): 8.15 µg/mL
[30]
  IC80 (TZM-bl neutralization): > 50 µg/mL
[31]
  IC50 (TZM-bl neutralization): 0.012 µg/mL
[32]
  IC50 (TZM-bl neutralization): 0.001 µg/mL
[33]
  IC80 (TZM-bl neutralization): 0.255 µg/mL
[34]
  IC50 (TZM-bl neutralization): > 50 µg/mL
[35]
  IC50 (TZM-bl neutralization): 0.008 µg/mL
[36]
  IC80 (TZM-bl neutralization): > 50 µg/mL
[37]
  IC50 (TZM-bl neutralization): > 50 µg/mL
[38]
  IC50 (TZM-bl neutralization): > 50 µg/mL
[39]
  IC50 (TZM-bl neutralization): 0.034 µg/mL
[40]
  IC80 (TZM-bl neutralization): 0.049 µg/mL
[41]
  IC50 (TZM-bl neutralization assay): 0.018 µg/mL
  IC80 (TZM-bl neutralization assay): 0.085 µg/mL
[42]
  IC80 (TZM-bl neutralization): 34.6 µg/mL
[43]
  IC80 (TZM-bl neutralization): 0.188 µg/mL
[44]
  IC80 (TZM-bl neutralization): 0.952 µg/mL
[45]
  IC80 (TZM-bl neutralization): 0.607 µg/mL
[46]
  IC50 (TZM-bl neutralization): 0.26 µg/mL
[47]
  IC50 (TZM-bl neutralization): 0.013 µg/mL
[48]
  IC80 (TZM-bl neutralization): > 50 µg/mL
[49]
  IC50 (TZM-bl neutralization): > 50 µg/mL
[50]
  IC50 (TZM-bl neutralization): 0.75 µg/mL
